Experimental data: patent US20180303952 (published 2018)

Target: T1, human CD147 (human, UniProt P35613)
T1 chain: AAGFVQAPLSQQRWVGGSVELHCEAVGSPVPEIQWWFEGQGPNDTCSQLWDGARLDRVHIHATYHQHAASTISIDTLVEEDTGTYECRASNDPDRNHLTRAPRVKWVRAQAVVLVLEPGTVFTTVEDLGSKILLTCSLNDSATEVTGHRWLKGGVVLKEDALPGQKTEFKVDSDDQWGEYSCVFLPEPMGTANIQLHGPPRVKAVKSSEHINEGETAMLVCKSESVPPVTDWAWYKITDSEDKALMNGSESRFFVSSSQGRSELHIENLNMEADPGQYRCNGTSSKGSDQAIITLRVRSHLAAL
Assay: ELISA

Kd: 0.293 nM
B1: mouse 3A11 (antibody, V domains shown)
VH: EVQLVESGGGLVQPGGSLRLSCAASGFTFSNYWMDWVRQAPGKGLEWVGEIRLKSYNYATHYAASVKGRFTISRDDSKNSVYLQMNSLKTEDTAVYYCTAAGTDYWGQGTLVTVSS
VL: SIVMTQIPKILLVSAGDRVTITCKASQSVRTDVAWYQQKPGQSPKLLIYYSSNRYTGVPDRFTGSGYGTDFTFTISTVQAEDLAVYFCQQDYSSPFTFGSGTKLEIK
